We go through 5 molecules from patent US7148071B2, “Quantitative, high-throughput screening method for protein stability” (Duke University, priority 2000, dated 2006).

Marks after values point to notes of the source that are not given here. Ends that are not written are not given here. Some results are limits rather than exact numbers.

In one data set the target is P22 Arc repressor (Salmonella phage P22, UniProt P03050). Kind of data set: SUPREX analysis of P22 Arc repressor in the absence and presence of cognate DNA. To be noted: Arc dimer 12 μM, absence of DNA, 20 mM phosphate pH=7.4. Format: binding. The text has this:
. At this concentration the stability of the Arc dimer is less than that detectable by SUPREX. Even with exchange times of several minutes, there is no transition detected in the SUPREX curve. The transition midpoint is shifted off scale to the left; […].

The conditions of data set [1]: cited from earlier work.
Data set [2] can be described thus: SUPREX analysis of P22 Arc repressor, a homo-dimeric protein. Format: physicochemical. As to conditions: ΔGSUPREX adjusted to standard conditions (1 M dimer).
Data set [3] is described as follows: conventional CD denaturation curves of purified proteins. Format: physicochemical. To be noted: purified protein, pH 8 buffer, FIG. 10A.
Method: FIGS. 10A–10C depict a conventional denaturation curve by CD with purified protein in 0.15 M NaCl, 20 mM Na2HPO4, 20 mM CH3COONa, pH 8.
Data set [4] is described as follows: SUPREX (H/D exchange detected by MALDI MS) stability of unpurified proteins in crude E. coli lysates. Format: physicochemical.
Another data set has as its system E. coli. Format: cell-based. Here is the method:
. […] In FIG. 10B, E. coli placed in various concentrations of urea for 30 minutes were studied at 23° C. (closed circles) and 15° C. (open circles).
(closed circles) and 15° C. (open circles). 1 ml cultures of BL21-(DE3) E. coli were pelleted and resuspended in LB media containing various urea concentrations and incubated for 30 minutes at 15° C. and 23° C. The cells were then pelleted and resuspended in 1 ml of LB media, diluted 1000, plated on LB-agar plates, incubated at 37° C. overnight and the number of colonies were counted.

For the next data set, the target named is Trp repressor protein (Escherichia coli, UniProt P0A881). As for the experimental part:
The concentration of Trp repressor in these experiments was 20 μM; and in (B) the concentration of L-tryptophan in each SUPREX buffer was 200 μM.

The conditions of data set [5]: cited from earlier work. This is another data set of the same source.
A short description of data set [6]: SUPREX analysis of RNase A, normal protocol. Format: physicochemical. Here is the method:
Two different experimental protocols were employed for the SUPREX analysis of RNase A including one for normal analyses and one for high sensitivity analyses. H/D exchange reactions were initiated by combining 1 μL aliquots of a 100 μM solution of RNase A (fully protonated) in 20 mM sodium phosphate buffer (pH 7.4) with 9 μL volumes of 10 different deuterated exchange buffers containing 20 mM sodium phosphate (pD=7.4) and concentrations of GdmCl that varied between 0.5 and 4 M. After a specified exchange time (typically 65 minutes), a 1 μL aliquot of each exchange reaction was combined with 19 μL of a MALDI matrix solution. The MALDI matrix solution, which comprised an ice-cold, saturated, aqueous solution of SA containing 63% MeCN and 0.1% TFA (pH=3.0), effectively a quenched the H/D exchange reaction and prepared the sample for MALDI analysis. This matrix solution also included two internal mass standards, bovine ubiquitin (8566.1 Da) and hen egg lysozyme (14,303.7 Da). Subsequently, 1 μL of the quenched exchange reaction was spotted on a stainless steel MALDI plate and the solvent was evaporated under a gentle flow of air. […]
(§1) For both normal and high sensitivity analyses 10 replicate MALDI mass spectra were collected and analyzed to determine an average change in mass relative to the fully protonated sample (ΔMass) at each [GdmCl]. […]

A short description of data set [7]: high sensitivity SUPREX analysis of RNase A (micro-concentration step). Format: physicochemical. As to conditions: high sensitivity protocol. As for the experimental part: The high sensitivity SUPREX protocol outlined in FIG. 11 is similar to the SUPREX protocol disclosed above, with the exception that protein samples were subjected to a micro-concentration step after H/D exchange and prior to MALDI analysis. This micro-concentration step involved the use of a batch chromatography method utilizing 10 μL C18 SUPROTIPS™ from AmiKa (Columbia, Md.). It was preferred to quench the H/D exchange reaction with TFA (0.25% v/v) prior to binding the deuterated protein samples to the SUPROTIPS™. This facilitated preservation of the deuteration state of the protein. […]
as §1
Values for ΔM0, ΔM∞ and ΔGf were obtained by fitting the ΔMass versus [GdmCl] data to equation 1 using SigmaPlot and a nonlinear least squares analysis. value of 8.47 s^−1 was used, which was calculated based on the data of Bai et al (Bai et al., (1993) Proteins 17: 75–86), using the program SPHERE (Zhang, Ph.D. Thesis, Structural Biology and Molecular Biophysics, University of Pennsylvania); and an m value of 3.1 kcal mol^−1M^−1 was used, which was previously determined in other GdmCl-induced equilibrium unfolding experiments on RNase A (Pace et al., (1990) Biochem. 29: 2564–72). […]

On to “P22 Arc repressor: P22 Arc repressor, a homo-dimeric protein (MKGMSKMPQFNLRWPREVLDLVRKVAEENGRSVNSEIYQRVMESFKKEGRIGA; also: homo-dimeric protein; UniProt P03050 1-53, looked up)”, for which the “maximum ΔGSUPREX value” with P22 Arc repressor is recorded as less than 4.0 kcal/mol. For the same molecule, in data set [1] (conventional CD denaturation studies (Bowie et al., 1989)), the “previously reported ΔG value” is on record as 11.0 kcal/mol. Moreover, the “standard ΔG value” in data set [2] worked out at 11.3 ± 0.2 kcal/mol.
Regarding “λ6–85: monomeric form of the N-terminal domain of λ repressor, wild type”, the “stability by CD denaturation (linear extrapolation method)” value in [3] was 6.16 ± 0.13 kcal/mol. For the same molecule, the “ΔGf (kcal/mol) CD” value in [1] (25° C., purified protein, published values) is reported as −4.4 ± 0.2^b kcal/mol. Moreover, the “previously reported experimental m value” in [1] (measured from CD denaturation curves) is reported as 2.1±0.1 kcal mol^−1 M^−1. The “ΔGf (kcal/mol) SUPREX” value in data set [4] was -5.0 ± 0.4 kcal/mol.
With `NC(N)=O` [urea], the “viability of E. coli cells” value with E. coli was “does not perturb the viability of the cells”.
`N[C@@H](Cc1c[nH]c2ccccc12)C(=O)O` [L-tryptophan] gave a ΔGBinding at Trp repressor protein of -3.8 kcal/mol.

B1: RNase A: bovine pancreatic ribonuclease A (type I-A) (protein, UniProt P61823 27-150, looked up)
Ribonuclease pancreatic: KETAAAKFERQHMDSSTSAASSSNYCNQMMKSRNLTKDRCKPVNTFVHESLADVQAVCSQKNVACKNGQTNCYQSYSTMSITDCRETGSSKYPNCAYKTTQANKHIIVACEGNPYVPVHFDASV
On to B1, for which, in data set [5] (GdmCl-induced equilibrium unfolding (Pace et al., 1990)), the m value is listed as 3.1 kcal mol^−1M^−1. Further, the “ΔGf by conventional fluorescence denaturation” value in data set [5] (Pace et al.) is -9.24 ± 0.64 kcal/mol. Moreover, the “ΔGf from one SUPREX curve” value in [6] (FIG. 12B, standard error of 0.2) was -12.9 kcal/mol; in [7] (standard error of 0.2) it was -12.4 kcal/mol. Besides, the “average ΔGf value and standard deviation” value in data set [6] (three replicate SUPREX analyses) is -12.4 ± 0.4 kcal/mol; in data set [7] (3 replicate SUPREX analyses) it was -12.0 ± 0.5 kcal/mol.
